The Human Domainome abundance scans (Beltran et al. 2025)
± gives the uncertainty stated by the source.

B1: Ras GTPase-activating protein 1, residues 281 to 341; numbered along this chain, P20936 (parent)
chain: RRRVRAILPYTKVPDTDEISFLKGDMFIVHNELEDGWMWVTNLRTDEQGLIVEDLVEEVGR

Variants of: B1
Test: abundance fitness (aPCA) (normalised: wild type 0, dead -1); higher = more abundant; growth selection in yeast, the domain comes from the species named
Settings: Homo sapiens

RRRVRAILPYTKVPDTDEISFLKGDMFIVHNELEDGWMWVTNLRTDEQGLIVEDLVEEVAR [G60A] and RRRVRAILPYTKVPDTDEISFLKGDMFIVHNELEDGWMWVTNLRTDEQGLIVEDLVEEVYR [G60Y] are within error of each other in abundance fitness: -0.071 ± 0.12 for the first, -0.058 ± 0.1 for the second.

RRRVRAILPYTKVPDTDEISFLKGDMFIVHNELEDGWMWVTNLRTDEQGLIVEDLVEEVER [G60E] and RRRVRAILPYTKVPDTDEISFLKGDMFIVHNELEDGWMWVTNLRTDEQGLIVEDLVEEAGR [V59A] are within error of each other in abundance fitness: 0.003 ± 0.25 for the first, -0.027 ± 0.032 for the second.

Compared with RRRVRAILPYTKVPDTDEISFLKGDMFIVHNELEDGWMWVTNLRTDEQGLIVEDLVEERGR [V59R], RRRVRAILPYTKVPDTDEISFLKGDMFIVHNELEDGWMWVTNLRTDEQGLIVEDLVEEQGR [V59Q] is higher in abundance fitness: -0.372 ± 0.033 for the first, -0.055 ± 0.05 for the second.

RRRVRAILPYTKVPDTDEISFLKGDMFIVHNELEDGWMWVTNLRTDEQGLIVEDLVEEHGR [V59H] and RRRVRAILPYTKVPDTDEISFLKGDMFIVHNELEDGWMWVTNLRTDEQGLIVEDLVEEDGR [V59D] are within error of each other in abundance fitness: -0.124 ± 0.03 for the first, -0.067 ± 0.033 for the second.

First: RRRVRAILPYTKVPDTDEISFLKGDMFIVHNELEDGWMWVTNLRTDEQGLIVEDLVEEKGR [V59K]
Second: RRRVRAILPYTKVPDTDEISFLKGDMFIVHNELEDGWMWVTNLRTDEQGLIVEDLVEEMGR [V59M]
The abundance fitness of the first is lower: -0.451 ± 0.079 for the first, -0.027 ± 0.047 for the second.

RRRVRAILPYTKVPDTDEISFLKGDMFIVHNELEDGWMWVTNLRTDEQGLIVEDLVEEFGR [V59F] and RRRVRAILPYTKVPDTDEISFLKGDMFIVHNELEDGWMWVTNLRTDEQGLIVEDLVEETGR [V59T] are within error of each other in abundance fitness: -0.106 ± 0.025 for the first, -0.113 ± 0.031 for the second.

RRRVRAILPYTKVPDTDEISFLKGDMFIVHNELEDGWMWVTNLRTDEQGLIVEDLVEEGGR [V59G] and RRRVRAILPYTKVPDTDEISFLKGDMFIVHNELEDGWMWVTNLRTDEQGLIVEDLVEENGR [V59N] are within error of each other in abundance fitness: -0.176 ± 0.029 for the first, -0.19 ± 0.033 for the second.

RRRVRAILPYTKVPDTDEISFLKGDMFIVHNELEDGWMWVTNLRTDEQGLIVEDLVEEIGR [V59I] and RRRVRAILPYTKVPDTDEISFLKGDMFIVHNELEDGWMWVTNLRTDEQGLIVEDLVEELGR [V59L] are within error of each other in abundance fitness: -0.04 ± 0.029 for the first, -0.066 ± 0.027 for the second.

RRRVRAILPYTKVPDTDEISFLKGDMFIVHNELEDGWMWVTNLRTDEQGLIVEDLVEECGR [V59C] and RRRVRAILPYTKVPDTDEISFLKGDMFIVHNELEDGWMWVTNLRTDEQGLIVEDLVEEEGR [V59E] are within error of each other in abundance fitness: -0.041 ± 0.028 for the first, 0.011 ± 0.053 for the second.

RRRVRAILPYTKVPDTDEISFLKGDMFIVHNELEDGWMWVTNLRTDEQGLIVEDLVEEWGR [V59W] and RRRVRAILPYTKVPDTDEISFLKGDMFIVHNELEDGWMWVTNLRTDEQGLIVEDLVESVGR [E58S] are within error of each other in abundance fitness: -0.137 ± 0.052 for the first, -0.064 ± 0.026 for the second.

Going from RRRVRAILPYTKVPDTDEISFLKGDMFIVHNELEDGWMWVTNLRTDEQGLIVEDLVEMVGR [E58M] to RRRVRAILPYTKVPDTDEISFLKGDMFIVHNELEDGWMWVTNLRTDEQGLIVEDLVEKVGR [E58K], the abundance fitness rises from -0.326 ± 0.061 to -0.156 ± 0.063.

RRRVRAILPYTKVPDTDEISFLKGDMFIVHNELEDGWMWVTNLRTDEQGLIVEDLVEWVGR [E58W] and RRRVRAILPYTKVPDTDEISFLKGDMFIVHNELEDGWMWVTNLRTDEQGLIVEDLVETVGR [E58T] are within error of each other in abundance fitness: -0.106 ± 0.061 for the first, -0.023 ± 0.039 for the second.

First: RRRVRAILPYTKVPDTDEISFLKGDMFIVHNELEDGWMWVTNLRTDEQGLIVEDLVEYVGR [E58Y]
Second: RRRVRAILPYTKVPDTDEISFLKGDMFIVHNELEDGWMWVTNLRTDEQGLIVEDLVEQVGR [E58Q]
The abundance fitness of the first is lower: -0.305 ± 0.031 for the first, -0.113 ± 0.069 for the second.

First: RRRVRAILPYTKVPDTDEISFLKGDMFIVHNELEDGWMWVTNLRTDEQGLIVEDLVEVVGR [E58V]
Second: RRRVRAILPYTKVPDTDEISFLKGDMFIVHNELEDGWMWVTNLRTDEQGLIVEDLVELVGR [E58L]
The abundance fitness of the first is higher: -0.201 ± 0.035 for the first, -0.348 ± 0.033 for the second.

First: RRRVRAILPYTKVPDTDEISFLKGDMFIVHNELEDGWMWVTNLRTDEQGLIVEDLVERVGR [E58R]
Second: RRRVRAILPYTKVPDTDEISFLKGDMFIVHNELEDGWMWVTNLRTDEQGLIVEDLVEEVGK [R61K]
The abundance fitness of the first is lower: -0.171 ± 0.035 for the first, 0.108 ± 0.074 for the second.

RRRVRAILPYTKVPDTDEISFLKGDMFIVHNELEDGWMWVTNLRTDEQGLIVEDLVEEVGE [R61E] and RRRVRAILPYTKVPDTDEISFLKGDMFIVHNELEDGWMWVTNLRTDEQGLIVEDLVEEVGT [R61T] are within error of each other in abundance fitness: 0.234 ± 0.16 for the first, 0.092 ± 0.037 for the second.

RRRVRAILPYTKVPDTDEISFLKGDMFIVHNELEDGWMWVTNLRTDEQGLIVEDLVEEVGW [R61W] and RRRVRAILPYTKVPDTDEISFLKGDMFIVHNELEDGWMWVTNLRTDEQGLIVEDLVEEVGL [R61L] are within error of each other in abundance fitness: 0.07 ± 0.076 for the first, 0.039 ± 0.037 for the second.

Going from RRRVRAILPYTKVPDTDEISFLKGDMFIVHNELEDGWMWVTNLRTDEQGLIVEDLVEEVGY [R61Y] to RRRVRAILPYTKVPDTDEISFLKGDMFIVHNELEDGWMWVTNLRTDEQGLIVEDLVEEVGG [R61G], the abundance fitness rises from -0.076 ± 0.031 to 0.034 ± 0.048.

RRRVRAILPYTKVPDTDEISFLKGDMFIVHNELEDGWMWVTNLRTDEQGLIVEDLVEEVGN [R61N] and RRRVRAILPYTKVPDTDEISFLKGDMFIVHNELEDGWMWVTNLRTDEQGLIVEDLVEEVGV [R61V] are within error of each other in abundance fitness: 0.02 ± 0.033 for the first, 0.079 ± 0.039 for the second.

RRRVRAILPYTKVPDTDEISFLKGDMFIVHNELEDGWMWVTNLRTDEQGLIVEDLVEEVGA [R61A] and RRRVRAILPYTKVPDTDEISFLKGDMFIVHNELEDGWMWVTNLRTDEQGLIVEDLVEEVGP [R61P] are within error of each other in abundance fitness: 0.067 ± 0.051 for the first, 0.104 ± 0.046 for the second.

RRRVRAILPYTKVPDTDEISFLKGDMFIVHNELEDGWMWVTNLRTDEQGLIVEDLVEEVGF [R61F] and RRRVRAILPYTKVPDTDEISFLKGDMFIVHNELEDGWMWVTNLRTDEQGLIVEDLVEEVGQ [R61Q] are within error of each other in abundance fitness: 0.021 ± 0.043 for the first, 0.044 ± 0.083 for the second.

RRRVRAILPYTKVPDTDEISFLKGDMFIVHNELEDGWMWVTNLRTDEQGLIVEDLVEEVGH [R61H] and RRRVRAILPYTKVPDTDEISFLKGDMFIVHNELEDGWMWVTNLRTDEQGLIVEDLVEEVGD [R61D] are within error of each other in abundance fitness: 0.012 ± 0.032 for the first, 0.039 ± 0.04 for the second.

RRRVRAILPYTKVPDTDEISFLKGDMFIVHNELEDGWMWVTNLRTDEQGLIVEDLVEEVGM [R61M] and RRRVRAILPYTKVPDTDEISFLKGDMFIVHNELEDGWMWVTNLRTDEQGLIVEDLVEEVGI [R61I] are within error of each other in abundance fitness: -0.031 ± 0.065 for the first, -0.003 ± 0.029 for the second.
